Measured values as given in the supplement of paper PMC12042874.
± gives the uncertainty stated by the source.

Assay: amyloid nucleation score (Sup35N fusion, yeast selection) (log enrichment); library NNK2; higher = more nucleation; inactive = no reads after selection
How it was run: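 Plasmid inserts were Illumina-sequenced at input and output from psi-negative yeast expressing Sup35N fused to peptides of 20 random codons. The yeast were induced with 100 μM copper sulfate for 24 hours and grown 7 days at 30°C on medium lacking adenine and uracil, and sequences with under 100 input reads were excluded. Nucleation score is the DiMSum log enrichment of output over input reads, centred on the mode score of non-aggregating sequences.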

Row | Substance | amyloid nucleation score
1 | HLPFMHPRPANLSHNKTSVS | -0.766 ± 0.4
2 | HLWFEDAQFAIAKFKCGGKR | 6.16 ± 0.086
3 | HMARYKIMSVLEIFHYMNRL | 3.16 ± 0.16
4 | HMGLLFKWAYTYRIAWGKLR | -0.451 ± 0.79
5 | HMSRTPQAVRTSHPRVKNRI | -0.026 ± 0.26
6 | HMTSS | -0.495 ± 0.33
7 | HNAEANNVS | -0.492 ± 1.1
8 | HNGVRRHMSNVSKILHSYF | 0.02 ± 1
9 | HNLQECSPVGPGTAFFCGSW | -0.243 ± 1.1
10 | HNLWCDISLFGHIYRGRGTM | 7.21 ± 0.08
11 | HNMPARKYINSLMTFHVRWP | -0.321 ± 0.79
12 | HNNCNRFCQSIVLH | 6.34 ± 0.078
13 | HNPLS | inactive
14 | HNYGNPWE | 3 ± 0.12
15 | HNYVINESFFFLVVVYVDAG | 7.6 ± 0.037
16 | HQRLTRVLYWKVDIGQVCGI | 4.99 ± 0.065
17 | HRFIILNIVAFE | 0.59 ± 0.28
18 | HRLVLDIGDQIWSKA | 0.35 ± 0.56
19 | HRMNGFDLLMLVCKKCIDFC | inactive
20 | HRSMPIRYWVVTIWYGRSDS | 0.569 ± 0.41
21 | HRSNFVVKLAASGSFTTGCR | 0.376 ± 0.29
22 | HSGLSGTILGWLIFKVEGEE | 0.007 ± 0.42
23 | HSHVRLWSLRFDAHPNWHDK | 1.15 ± 0.27
24 | HSICSSRNTVIFMSENFRNR | 4.99 ± 0.057
25 | HSQRNP | inactive

Row | Substance | amyloid nucleation score
26 | HSRQCFTHFGYFTGLGRVRV | 2.18 ± 0.1
27 | HSRRGGFRKYSSTLARPASD | -0.799 ± 0.49
28 | HSSCIVVEAFSQGVVHNLFV | -0.567 ± 1.1
29 | HSSEIL | -0.006 ± 0.65
30 | HSVFNSMRRENLVNNNTLNG | inactive
31 | HSWNV | inactive
32 | HTFYVNKLPLPKL | 0.875 ± 0.45
33 | HTWDLYYAIYSA | -1.19 ± 0.36
34 | HVAEEVMGIVARVRVLMILS | -0.598 ± 0.45
35 | HVHGMYSGWCYDKTGQEKGM | 0.624 ± 0.34
36 | HVLEVPPAYPTQTSGMNPNS | -0.143 ± 0.76
37 | HVRGDLSRTGKWVMLRCYTR | inactive
38 | HVRMK | 4.79 ± 0.1
39 | HVSTSLYTIGSSVSWGMFQG | 0.897 ± 0.47
40 | HVVLNFCDTVWLMSKAP | 9.03 ± 0.078
41 | HVWGQLSCFARVALSDRSKM | 3.07 ± 0.16
42 | HWDQLV | -0.504 ± 0.78
43 | HWGSVAGDFWGFVVWSRFGR | 0.234 ± 0.34
44 | HWMAFVKRTANFDVIDWSAG | -0.278 ± 0.39
45 | HWSADDNFSSLQRLFVYMGR | 4.583 ± 0.043
46 | HYGNSWY | 0.958 ± 0.48
47 | HYLAIVTWLPYRCRF | 0.935 ± 0.15
48 | HYQYSFARTMVMLNMDWLML | 0.462 ± 0.43
49 | HYVSNEHSVRRTHHRKTKLT | 0.753 ± 0.67
50 | HYVVFVF | 6.37 ± 0.084

Row | Substance | amyloid nucleation score
51 | HYWNWYVEL | 4.582 ± 0.037
52 | HYYWSALSSAFVNSMIVR | -1.09 ± 0.76
53 | IALGLNSYGK | -1.74 ± 0.78
54 | IALTQILLRFFGLHA | -0.305 ± 1.1
55 | IAMIVIQYTIRHCGSAEAVG | 2.34 ± 0.19
56 | IANYSFELFII | 2.87 ± 0.1
57 | IARIRILCLL | 0.234 ± 0.19
58 | IARRLTMGLTRMM | 1.56 ± 0.18
59 | ICLVRWDMKSRVDGTSGM | 5.194 ± 0.037
60 | ICPRRS | 0.474 ± 0.34
61 | ICRGPQSSNCMEAFVQHFTK | 0.417 ± 0.42
62 | ICSAPGYL | inactive
63 | ICSDFGPNSGYRHQWVCIGV | -0.023 ± 0.45
64 | ICSYSVAGCYRKYRASFSGE | inactive
65 | ICYLKTQGKWFIILPWFVMM | 0.241 ± 0.8
66 | IDCFIVISSMMSRVLYCGER | 0.21 ± 0.25
67 | IDFVVIKTLGMCDITYLYM | -0.573 ± 1.1
68 | IDGKARDYMAGDARMNRF | -1.45 ± 0.75
69 | IDLLFDFTDLMWLIYPVFLL | -1.93 ± 0.75
70 | IDLSTMTAGTCISYCVYCRI | 5.25 ± 0.1
71 | IDNSTMDTCIMNRSQFTIRL | -0.412 ± 0.54
72 | IDQCIYDHVHNWVRRVDTRS | 0.223 ± 0.18
73 | IDRCGTLVTPDGINGRVTRV | 0.951 ± 0.55
74 | IDSMGFSMKSFDFRYNTSRW | 5.02 ± 0.092
75 | IDSVIKTEARGQGVVARTRA | 1.33 ± 0.28

Row | Substance | amyloid nucleation score
76 | IDSWCVTHATKIGSYWML | 0.12 ± 0.34
77 | IDVLYCHDSL | 0.311 ± 0.42
78 | IERHIYGMSDAVLGVD | -0.493 ± 1.1
79 | IEVGRHRWALWRVAQSRLIG | 0.308 ± 0.25
80 | IFAAGYMYIFILVYLLTARG | -0.01 ± 1
81 | IFCAGYDNPRFINLLLLPKG | 3.05 ± 0.1
82 | IFCCIRFLV | 6.549 ± 0.03
83 | IFCWRVSCEQRVFYLIESGR | -0.388 ± 0.24
84 | IFGLCCFCGSYQRY | 8.152 ± 0.033
85 | IFKCRRVI | 4.614 ± 0.041
86 | IFLAWMVPAGFWR | 0.56 ± 0.54
87 | IFLCFGYYNLEVLCFDTRCQ | 3.1 ± 0.064
88 | IFLDHYS | -0.026 ± 0.35
89 | IFLKWLYKSFDYNI | 0.973 ± 0.23
90 | IFNLSRAQTVINL | 5.34 ± 0.063
91 | IFRIWRTRGRRSRFVSIEIG | -0.802 ± 0.41
92 | IFRNWGYSTFSHE | inactive
93 | IFRSSTLIDLKDLGLTSH | 1.27 ± 0.096
94 | IFRVLTGVIK | -0.277 ± 0.26
95 | IFSIHVVAQTINE | 4.64 ± 0.085
96 | IFSNIFSFV | 3.55 ± 0.13
97 | IFSWTLEV | 0.249 ± 0.64
98 | IGAMN | 0.586 ± 0.44
99 | IGCNVESVYAGLALQMT | 2.7 ± 0.18
100 | IGFSPLCQYHYCAYGCY | 7.695 ± 0.032

Row | Substance | amyloid nucleation score
101 | IGIIYFIARFAVVPRSGIRQ | -0.114 ± 1
102 | IGIMQMIYFVD | 5.79 ± 0.068
103 | IGTEMLTVYIFTYSSA | 0.416 ± 0.74
104 | IGVVILNHADSSLVTL | 3.31 ± 0.091
105 | IHNKWNKMYDRPYLIKIVAS | -0.37 ± 0.36
106 | IIENDICHWSDICMEDLMDW | 0.186 ± 0.54
107 | IIGDTICVVIIKWNLKNYRS | 3.67 ± 0.075
108 | IIILFQVQCHVVRLSRVHKC | -0.658 ± 0.49
109 | IILIYVCRRPCLISQDNAFF | inactive
110 | IIMNVVHEDSLL | 0.019 ± 0.5
111 | IINWPQLFKVASWTPSKTPP | -0.07 ± 0.76
112 | IIRMNLAGDGVESWGWDRLS | 1.12 ± 0.45
113 | IISSGSIDCVYWTWFLRY | -0.396 ± 0.55
114 | IIVSATSEGSLRRIRMKMGW | 4.27 ± 0.11
115 | IIWQPHSPCVRVYTCLSLIF | -1.67 ± 0.53
116 | IIYLIGLTRARHWCRLRYEL | -0.063 ± 0.3
117 | IKDLSRGCFSFYW | 1.37 ± 0.17
118 | IKFVEPYSFLS | 1.32 ± 0.092
119 | IKIIPPLKLLCVLGWHSRGA | 1.35 ± 0.19
120 | IKVYESYVRT | -0.812 ± 0.39
121 | ILCLF | 0.909 ± 0.45
122 | ILCYMVGSRIMCVEHSGC | 8.588 ± 0.064
123 | ILDSGVRYVFMRWLIGYCND | -0.513 ± 0.33
124 | ILFVLWKLDRRPCSLLEYTQ | 0.463 ± 0.56
125 | ILGSFEHSTQGKYSYWGMRG | 4.51 ± 0.066

Row | Substance | amyloid nucleation score
126 | ILIMGMILNSMYV | 0.516 ± 0.64
127 | ILIVVMCFHSNNKSRDNRIY | -1.46 ± 1
128 | ILLNGRSFLRS | 0.174 ± 1
129 | ILLVSATHYSQLNKGRPNDL | 1.43 ± 0.35
130 | ILMRSYDFALGPNQCIIRAK | 4.95 ± 0.074
131 | ILQFKVGKGQGNAQLFKPII | -0.935 ± 0.55
132 | ILRDDGPNYRFQIRLL | 4.647 ± 0.038
133 | ILRTDMMINMDLLFGNVGNL | 3.38 ± 0.089
134 | ILSCGRYWRTDTIVVTGNST | 1.91 ± 0.35
135 | ILSDKCLIGIGCSISSDTAG | -0.352 ± 0.38
136 | ILSQPEEGLGGTKSSFCVVF | -0.363 ± 1.1
137 | ILSRTKVFYNSSCETDVMWL | 4.17 ± 0.085
138 | ILSSFMQ | -0.2 ± 0.41
139 | ILTGR | -0.16 ± 0.55
140 | ILVSFYRDSS | 0.416 ± 0.44
141 | ILVSMDRLCLWAGTSASGFS | 0.278 ± 0.55
142 | ILVWLGQTEEASVDRRAQHT | 0.43 ± 0.32
143 | ILWLTADFTLLISNYMCLS | inactive
144 | ILYSDFRMYSGRFLSEMVRI | 0.247 ± 0.39
145 | IMFICTGRSLTHTD | -0.642 ± 1.1
146 | IMGKLHTADYIIVLRLIDRS | -0.349 ± 0.41
147 | IMHSLLRSGN | inactive
148 | IMIFSLVTMLDVNGTIC | 7.477 ± 0.047
149 | IMLKGDWC | -0.189 ± 0.47
150 | IMRMNVMCGVRYPYALFALL | inactive

Row | Substance | amyloid nucleation score
151 | IMTDPRSSLSLWCLNLSVNG | 4.88 ± 0.082
152 | IMTMTGNVDNIAVIRRS | -0.519 ± 1
153 | INFSTLYDLGESFFYQCPKM | inactive
154 | INQFMRDFLDHLPCAYRVYN | -0.049 ± 0.55
155 | INRPYNIVGRRSSPSHIVTF | inactive
156 | INVFSYSL | 2.58 ± 0.089
157 | INVPCFRLKSSVGVISLQGT | 0.205 ± 0.26
158 | IPEVESIGMGWGWREISGEC | 1.42 ± 0.41
159 | IPIWFERIALSDFKLVFSHN | inactive
160 | IPLQSTMRFRCPVMDLGNFI | -0.849 ± 1
161 | IPRCKKW | 3.22 ± 0.1
162 | IPSCRVFICRGNNVFRVPIT | -1.06 ± 1.1
163 | IPYEKPHRYIVNWECVAGSM | 0.621 ± 0.43
164 | IPYSSPS | inactive
165 | IQDLRFNITVTMPLESVSFM | 7.046 ± 0.058
166 | IQGPIVEFTISIRSSSRRHW | 3.1 ± 0.083
167 | IQKLRVRHDMISYTSEMSVN | -0.218 ± 0.55
168 | IRDWHWTNVGSCNCCFFCQG | 9.244 ± 0.079
169 | IRFGLVWRLKLGFMLGLNSA | 4.98 ± 0.095
170 | IRGCLNMFWLKKWDLPRLYF | -0.327 ± 0.63
171 | IRGDNWMVCTTYTNSSFLRS | 0.215 ± 0.57
172 | IRGGHTLSYRVEDKRPTEWG | 2.04 ± 0.2
